Measured values published in patent US20230183314A1 (ARO BIOTHERAPEUTICS, published 2023).
Like-named read-outs stand apart in the source and are kept apart here.

T1: cynomolgus monkey PSMA-Fc fusion (human; cynomolgus monkey, PSMA is a glycosylated homodimer. Only one subunit is given.)
T1 construct: also called cyno PSMA Fc; cynoPSMA-Fc; not shown: Human IgG1 Fc domain, which sits N-terminal of the PSMA ECD, and the junction with the Prescission protease site
T1 chain: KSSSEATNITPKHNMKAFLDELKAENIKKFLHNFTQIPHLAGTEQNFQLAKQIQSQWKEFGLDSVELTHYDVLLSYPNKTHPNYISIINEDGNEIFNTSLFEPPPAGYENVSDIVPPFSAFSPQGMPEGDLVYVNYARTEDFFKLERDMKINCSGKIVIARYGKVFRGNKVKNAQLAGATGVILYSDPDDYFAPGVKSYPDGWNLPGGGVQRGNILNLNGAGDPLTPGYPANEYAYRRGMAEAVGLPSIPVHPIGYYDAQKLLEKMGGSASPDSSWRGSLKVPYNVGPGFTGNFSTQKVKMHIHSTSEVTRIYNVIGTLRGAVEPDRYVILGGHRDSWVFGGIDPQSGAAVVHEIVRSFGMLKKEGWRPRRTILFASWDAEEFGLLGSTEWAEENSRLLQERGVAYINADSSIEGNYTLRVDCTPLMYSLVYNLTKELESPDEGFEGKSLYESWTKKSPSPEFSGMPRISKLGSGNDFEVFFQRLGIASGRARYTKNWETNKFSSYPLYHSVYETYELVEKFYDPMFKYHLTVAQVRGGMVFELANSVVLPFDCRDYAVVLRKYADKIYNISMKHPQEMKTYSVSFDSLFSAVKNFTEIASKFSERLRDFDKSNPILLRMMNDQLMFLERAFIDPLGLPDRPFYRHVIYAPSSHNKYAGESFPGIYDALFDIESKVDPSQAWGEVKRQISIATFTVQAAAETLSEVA


How the values were obtained:
[1] = biological target: T1, cynomolgus monkey PSMA-Fc fusion; assay: binding to cynoPSMA-Fc; method not described
[2] = biological target: T2, human prostate specific membrane antigen (PSMA) (human, UniProt Q04609 1-750); assay: binding to LNCaP cells (flow cytometry, FIG. 9C)
T2 construct: Endogenous PSMA on the human prostate cancer cell lines LNCaP, 22Rv1, MDA-PCA-2B and VCAP; also called human PSMA
T2 sequence (Q04609 whole entry): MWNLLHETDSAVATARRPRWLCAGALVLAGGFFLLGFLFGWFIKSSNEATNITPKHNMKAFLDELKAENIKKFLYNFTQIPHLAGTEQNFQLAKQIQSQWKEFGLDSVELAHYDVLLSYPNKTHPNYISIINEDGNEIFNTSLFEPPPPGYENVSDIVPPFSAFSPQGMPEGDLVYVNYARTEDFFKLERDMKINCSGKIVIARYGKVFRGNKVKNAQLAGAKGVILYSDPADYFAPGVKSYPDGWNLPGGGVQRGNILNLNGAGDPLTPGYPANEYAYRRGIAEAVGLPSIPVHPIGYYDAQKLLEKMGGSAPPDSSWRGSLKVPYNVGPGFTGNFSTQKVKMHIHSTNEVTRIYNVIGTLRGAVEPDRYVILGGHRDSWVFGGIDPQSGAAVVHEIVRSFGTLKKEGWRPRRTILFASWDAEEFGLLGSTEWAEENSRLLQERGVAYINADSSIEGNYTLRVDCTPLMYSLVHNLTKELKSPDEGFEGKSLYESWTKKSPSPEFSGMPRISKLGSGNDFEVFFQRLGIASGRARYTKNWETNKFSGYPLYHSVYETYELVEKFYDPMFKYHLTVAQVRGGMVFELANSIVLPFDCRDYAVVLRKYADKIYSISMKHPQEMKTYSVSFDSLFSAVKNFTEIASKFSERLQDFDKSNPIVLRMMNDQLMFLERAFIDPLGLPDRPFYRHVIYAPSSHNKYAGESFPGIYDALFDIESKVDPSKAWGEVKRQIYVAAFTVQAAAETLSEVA

[3] = biological target: T2, human prostate specific membrane …; assay: flow cytometry, direct binding to LNCaP cells (relative cell binding, MFI, against concentration in nM); the table under the plot labels the half-maximal concentration IC50; unit taken from the concentration axis
[4] = biological target: T1, cynomolgus monkey PSMA-Fc fusion; assay: binding to cynoPSMA-Fc; method not described
[5] = biological target: T2, human prostate specific membrane …; assay: binding to LNCaP cells (flow cytometry, FIG. 8C)
[6] = biological target: T2, human prostate specific membrane …; assay: flow cytometry, direct binding to LNCaP cells (relative cell binding, MFI, against concentration in nM); the table under the plot labels the half-maximal concentration IC50; unit taken from the concentration axis; remark: listed apart in the source
[7] = biological target: T2, human prostate specific membrane …; assay: as above; remark: listed apart in the source

Row | Kd [1] | Kd [2] | IC50 [3] | Kd [4] | Kd [5] | IC50 [6] | IC50 [7] | Binder
1 | 0.1 nM | ~0.025 nM | 1.32 nM |  |  |  |  | P258AR6P1071_D02 (designed binder, not shown: C-terminal poly-histidine tag) LPAPKNLVVSRVTEDSARLSWAIDEQRDWFESFLIQYQESEKVGEAIVLTVPGSERSYDLTGLKPGTEYTVSIYGVYHVYRSNPLSAIFTT
2 |  |  | 0.598 nM | 692 nM | ~0.003 nM | 0.598 nM | 0.598 nM | P233FR9_H10 PSMA binding FN3 domain (designed binder, His-tagged, expressed in E. coli; also called H10 centyrin; not shown: C-terminal poly-histidine tag) LPAPKNLVVSRVTEDSARLSWTAPDAAFDSFAIGYWEWDDDGEAIVLTVPGSERSYDLTGLKPGTEYPVYIAGVKGGQWSFPLSAIFTT
3 |  |  |  |  |  |  | 0.608 nM | P233FR9_H10_v18 (designed binder, Optimized Centyrin; not shown: C-terminal poly-histidine tag) LPAPKNLVVSRVTEDSARLSWTAPDAAFDSFAIAYWEWDDDGEAIVLTVPGSCRSYDLTGLKPGTEYPVYIAGVKGGQWSFPLSAIFTT
